Measured values: publication PMC11602988 (The Journal of Biological Chemistry, 2024)
Residue numbers refer to the chain shown, from its start.

Experiments:
[1] = biological target: T1, OCT1 WT (Homo sapiens, UniProt O15245); test: Uptake screening (transport ratio over empty vector), HEK293 cells overexpressing OCT1 WT; type: cell-based; parameters: expressed in transfected cells;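 also: intracellular substrate levels quantified by HPLC–tandem mass spectrometry after uptake in HBSS+ buffer at 37 °C, stable Flp-In HEK293 lines, fold change versus empty vector–transfected cells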
T1 sequence (O15245 1-554): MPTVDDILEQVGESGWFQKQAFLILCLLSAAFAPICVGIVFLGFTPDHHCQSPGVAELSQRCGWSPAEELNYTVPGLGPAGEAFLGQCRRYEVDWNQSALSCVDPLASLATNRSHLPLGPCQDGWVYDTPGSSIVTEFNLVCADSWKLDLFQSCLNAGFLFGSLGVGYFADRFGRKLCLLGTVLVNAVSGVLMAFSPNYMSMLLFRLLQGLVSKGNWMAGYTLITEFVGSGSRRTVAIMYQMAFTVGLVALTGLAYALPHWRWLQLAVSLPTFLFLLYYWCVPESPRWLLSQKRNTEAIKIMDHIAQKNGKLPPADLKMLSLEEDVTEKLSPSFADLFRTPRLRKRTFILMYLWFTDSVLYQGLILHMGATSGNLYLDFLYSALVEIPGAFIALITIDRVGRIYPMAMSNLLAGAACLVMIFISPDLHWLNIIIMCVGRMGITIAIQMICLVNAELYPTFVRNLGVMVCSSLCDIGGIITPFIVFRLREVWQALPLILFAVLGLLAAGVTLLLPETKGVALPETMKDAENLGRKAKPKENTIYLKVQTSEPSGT
Procedure: (§1) All experiments were carried out using transporter-overexpressing HEK293 cells. […] Cells were cultivated in Dulbecco’s Modified Eagle’s medium supplemented with 10% fetal calf serum, 100 U/ml penicillin, and 100 μg/ml streptomycin. Cells were passaged twice a week and kept in culture for no longer than 30 passages.
(§2) For uptake studies, 300,000 HEK293 cells were plated in each well of 24-well plates precoated with poly-D-lysine 48 prior to the experiment. On the day of the experiment, cells were washed once with prewarmed to 37 °C HBSS+ (Hank’s balanced salt solution supplemented with 10 mM Hepes, both Sigma-Aldrich). […] Uptake was stopped by adding ice-cold HBSS+ and cells were washed twice with ice-cold buffer before cell lysis was done using 80% acetonitrile containing an appropriate internal standard for eventual mass spectrometry. Relative quantification was done by comparison of transporter-overexpressing cells to empty vector–transfected controls. For uptake kinetic experiments, cells were incubated with increasing concentrations of substrate dissolved in HBSS+. Absolute quantification was done later by comparison to a standard curve in lysis buffer with known concentration.
(§3) Intracellular drug concentrations were detected and quantified by HPLC coupled to mass spectrometry. […] Substance-specific conditions were used to adjust the retention times of the analytes.
(§4) Transport ratios were determined as relative fold-increase of the uptake in transporter-overexpressing cells over empty vector–transfected control cells. For transport kinetic experiments, absolute substrate quantification was done by signal comparison to a standard curve with known concentrations. Net uptake was then determined by subtracting the uptake into empty vector–transfected cells from transporter-overexpressing cells. […] Vmax defines the maximum transport velocity, Km refers to the substrate concentration required to reach half vmax. The intrinsic clearance Clint is the ratio of vmax over Km.

[2] = biological target: T2, OCT1 Phe244Ala variant (Homo sapiens, UniProt O15245, F244A); test: Uptake screening (transport ratio over empty vector), HEK293 cells overexpressing OCT1 Phe244Ala variant; type: cell-based; parameters: expressed in transfected cells; conditions: for relative_Phe244Ala_uptake_in%: Phe244Ala uptake relative to OCT1 WT;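 as to all read-outs here: stably transfected HEK293 cells, intracellular substrate quantified by HPLC-tandem mass spectrometry in cell lysates, uptake in HBSS+ buffer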
T2 sequence (O15245 1-554 F244A): T1 sequence (O15245 1-554) with F244A
Procedure: as §1, §2, §3, §4

[3] = biological target: T1, OCT1 WT; test: Stereoselective cell uptake of racemic substrates (chiral LC-MS/MS), OCT1 WT; conditions: 2.5 μM racemic substance, 2 min
Procedure: (§5) Intracellular concentrations were quantified after chiral chromatography by mass spectrometry and are presented as mean ± SD of three independent experiments. […] Whenever the absolute steric conformation of the enantiomers was unknown, the enantiomers were termed according to their elution as enantiomer-1 (E1) and enantiomer-2 (E2).
For uptake studies, 300,000 HEK293 cells were plated in each well of 24-well plates precoated with poly-D-lysine 48 prior to the experiment. On the day of the experiment, cells were washed once with prewarmed to 37 °C HBSS+ (Hank’s balanced salt solution supplemented with 10 mM Hepes, both Sigma-Aldrich). […] Relative quantification was done by comparison of transporter-overexpressing cells to empty vector–transfected controls. […] Absolute quantification was done later by comparison to a standard curve in lysis buffer with known concentration. […]
Transport ratios were determined as relative fold-increase of the uptake in transporter-overexpressing cells over empty vector–transfected control cells. For transport kinetic experiments, absolute substrate quantification was done by signal comparison to a standard curve with known concentrations. Net uptake was then determined by subtracting the uptake into empty vector–transfected cells from transporter-overexpressing cells. […]

[4] = biological target: T2, OCT1 Phe244Ala variant; test: Stereoselective cell uptake of racemic substrates (chiral LC-MS/MS), OCT1 Phe244Ala variant; conditions: 2.5 μM racemic substance, 2 min
Procedure: as §5, §2
Chromatography was carried out with in reversed-phase mode with an aqueous mobile phase buffered with ammonium acetate and supplemented with 2-propanol or methanol as organic modifiers (Table S2). Order of elution of enantiomers was obtained either by reference literature ([28], [29], [30], [31], [32], [33]) or by injecting single enantiomers. Whenever there was no information available, the first eluting enantiomer was referred to as E1 and the second as E2.
as §4

[5] = biological target: T1, OCT1 WT; test: cell-based
Procedure: (§6) For cellular inhibition experiments, 300,000 HEK293 cells were plated in poly-D-lysine precoated 24 well plates 48 h in advance. To study transporter inhibition, cells were incubated with 2 μM (R,S)-ethambutol with and without 20 μM inhibitor both dissolved in HBSS+.
(§7) In inhibition experiments, transporter activity was calculated as it follows: %OCT1activity=[Substrateinhibited]−[SubstrateEV]/[Substratenon−inhibited]−[SubstrateEV]
(§8) Substrateinhibited is the uptake of ethambutol into transporter-overexpressing cells in presence of an inhibitor, whereas substratenon-inhibited refers to the ethambutol uptake without coincubation with an inhibitor. SubstrateEV refers to the ethambutol uptake into empty vector–transfected control cells. Percent inhibition values where then calculated as in the following: %transporterinhibition=100%−transporteractivity In concentration-dependent inhibition experiments, the transporter activity was plotted against the log10 of inhibitor concentrations. The data was then analyzed by the following formula to determine IC50 values: Y=Ymin+(Ymax−Ymin)/1+10^log10(IC50−x)∙hillslope
(§9) Y describes the transporter activity, whereas Ymax is to the maximum and Ymin to the minimal transporter activity. X refers to the log10 of inhibitor concentrations, IC50 characterizes the half-maximal inhibitory concentration, and hill slope describes the slope factor.

[6] = biological target: T2, OCT1 Phe244Ala variant; test: cell-based
Procedure: as §6, §7, §8, §9

[7] = biological target: T2, OCT1 Phe244Ala variant; test: Inhibition of (R,S)-ethambutol uptake, HEK293 cells overexpressing OCT1 Phe244Ala; conditions: for Inhibition of the Phe244Ala mutant compared to the WT transporter (screening): 20 μM inhibitor, 2 μM (R,S)-ethambutol, 5 min
Procedure: as §6, §7, §8, §9

[8] = biological target: T1, OCT1 WT; test: Concentration-dependent uptake kinetics, HEK293 cells overexpressing OCT1 WT; conditions: OCT1 WT; ratio of vmax over Km
Procedure: as §1, §2, §3, §4

[9] = biological target: T2, OCT1 Phe244Ala variant; test: Concentration-dependent uptake kinetics, HEK293 cells overexpressing OCT1 Phe244Ala;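 also: cells exposed to rising substrate concentrations in buffer, intracellular drug measured by HPLC-tandem mass spectrometry, quantified against a standard curve, uptake referenced to empty vector-transfected HEK293 controls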
Procedure: as §1, §2, §3, §4

[10] = substrate: CC(=O)OC(C)C[N+](C)(C)C; test: cells, lysate or membranes; conditions: other: OCT1 WT, HEK293, 2 min incubation, net uptake, mean ± SD of three experiments
[11] = substrate: CC(C)(C)NCC(O)COc1cccc2c1CCC(=O)N2; test: cells, lysate or membranes; conditions: other: OCT1 WT, HEK293, 2 min incubation, net uptake, mean ± SD of three experiments
[12] = substrate: CC(C)[N+](C)(CCOC(=O)C1c2ccccc2Oc2ccccc21)C(C)C; test: cells, lysate or membranes; conditions: other: OCT1 WT, HEK293, 2 min incubation, net uptake, mean ± SD of three experiments
[13] = substrate: CC(CCc1ccc(O)cc1)NCCc1ccc(O)c(O)c1; test: cells, lysate or membranes; conditions: other: OCT1 WT, HEK293, 2 min incubation, net uptake, mean ± SD of three experiments
Procedure: as §1, §2, §3, §4

[14] = substrate: CCN1CCCC1CNC(=O)c1cc(S(N)(=O)=O)ccc1OC; test: cells, lysate or membranes; conditions: other: OCT1 WT, HEK293, 2 min incubation, net uptake, mean ± SD of three experiments
[15] = substrate: CN(C)CCc1c[nH]c2ccc(C[C@H]3COC(=O)N3)cc12; test: cells, lysate or membranes; conditions: other: OCT1 WT, HEK293, 2 min incubation, net uptake, mean ± SD of three experiments
[16] = substrate: CN1CCN(CC(=O)N2c3ccccc3C(=O)Nc3cccnc32)CC1; test: cells, lysate or membranes; conditions: other: OCT1 WT, HEK293, 2 min incubation, net uptake, mean ± SD of three experiments
[17] = substrate: COc1cc(CCN)cc(OC)c1OC; test: cells, lysate or membranes; conditions: other: OCT1 WT, HEK293, 2 min incubation, net uptake, mean ± SD of three experiments
[18] = substrate: Cc1ncc(C[n+]2csc(CCO)c2C)c(N)n1; test: cells, lysate or membranes; conditions: other: OCT1 WT, HEK293, 2 min incubation, net uptake, mean ± SD of three experiments
[19] = substrate: NC(N)=Nc1nc(CSCCC(N)=NS(N)(=O)=O)cs1; test: cells, lysate or membranes; conditions: other: OCT1 WT, HEK293, 2 min incubation, net uptake, mean ± SD of three experiments
[20] = uptake ratio of OCT1 WT-overexpressing HEK293 cells over empty vector
[21] = uptake ratio of OCT1 Phe244Ala-overexpressing HEK293 cells over empty vector

CCOc1ccccc1OCCN[C@H](C)Cc1ccc(OC)c(S(N)(=O)=O)c1 [Tamsulosin]
Mean_transport_ratio_WT ([1]; uptake ratio over empty vector, HEK293 cells overexpressing OCT1 WT): 3.001 | relative_Phe244Ala_uptake_in% [2]: 40.118% | Mean_transport_ratio_Phe244Ala ([2]; uptake ratio over empty vector, HEK293 cells overexpressing OCT1 Phe244Ala): 1.803 | Stereoselectivity of uptake via WT OCT1 [3]: stereoselective uptake | Stereoselectivity of transport by the Phe244Ala variant [4]: lacked any stereoselective transport

CN(C)CCc1ccc(O)cc1 [Hordenine]
IC50 [5]: 3 µM | IC50 [6]: 53.2 µM | Mean_transport_ratio_WT [1, 20]: 2.424 | relative_Phe244Ala_uptake_in% [2]: 11.246% | Mean_transport_ratio_Phe244Ala [2, 21]: 1.16 | Inhibition of the Phe244Ala mutant compared to the WT transporter (screening) [7]: strongly reduced inhibition

COc1cc(CCN)cc(OC)c1OC [Mescaline]
Mean_transport_ratio_WT [1, 20]: 5.297 | Transport activity of Phe244Ala in % of WT activity ([2]; 2.5 μM substrate, 2 min, Phe244Ala uptake relative to WT): ~10% | relative_Phe244Ala_uptake_in% [2]: 16.381% | Mean_transport_ratio_Phe244Ala [2, 21]: 1.704 | Clint [8]: 4.84 ± 2.55 ml × g Protein^−1 × min^−1 | Inhibition of the Phe244Ala mutant compared to the WT transporter (screening) [7]: strongly reduced inhibition | Clint ([9]; OCT1 Phe244Ala, ratio of vmax over Km): 0.91 ± 2.50 ml × g Protein^−1 × min^−1 | Km, Phe244Ala compared to WT ([9]; uptake kinetics, in words): higher apparent affinity Km and transport capacity vmax for the WT transporter than the Phe244Ala variant | Maximum transport capacity (vmax), Phe244Ala compared to WT ([9]; uptake kinetics, in words): higher apparent affinity Km and transport capacity vmax for the WT transporter than the Phe244Ala variant

Clc1cccc(Cl)c1N=C1NCCN1 [Clonidine]
IC50 [5]: 1.62 µM | IC50 [6]: 34.3 µM | Inhibition of the Phe244Ala mutant compared to the WT transporter (screening) [7]: strongly reduced inhibition | Fold difference of inhibitory potency between WT and Phe244Ala ([7]; IC50 comparison, (R,S)-ethambutol uptake): 21 fold

B1: OCT1 WT (Homo sapiens) (protein)
chain: T1 sequence (O15245 1-554)
Km [10]: 413 ± 314 µM | Vmax [10]: 0.00584 µmol/min/mg | Vmax/Km [10]: 14.1 µL/min/mg | Km [11]: 449 ± 438 µM | Vmax [11]: 0.000453 µmol/min/mg | Vmax/Km [11]: 1.01 µL/min/mg | Km [12]: 1.26 ± 1.12 µM | Vmax [12]: 0.000271 µmol/min/mg | Vmax/Km [12]: 224 µL/min/mg | Km [13]: 40.1 ± 57.7 µM | Vmax [13]: 0.000122 µmol/min/mg | Vmax/Km [13]: 3.03 µL/min/mg | Km [14]: 89.2 ± 85.2 µM | Km [15]: 98.5 ± 87.8 µM | Vmax [15]: 0.00213 µmol/min/mg | Vmax/Km [15]: 21.6 µL/min/mg | Km [16]: 69.3 ± 103 µM | Vmax [16]: 3e-05 µmol/min/mg | Vmax/Km [16]: 0.43 µL/min/mg | Km [17]: 38.2 ± 14.3 µM | Vmax [17]: 0.000185 µmol/min/mg | Vmax/Km [17]: 4.84 µL/min/mg | Km [18]: 1161 ± 1029 µM | Vmax [18]: 0.00872 µmol/min/mg | Vmax/Km [18]: 7.51 µL/min/mg | Km [19]: 64.7 ± 50.2 µM | Vmax [19]: 0.00296 µmol/min/mg | Vmax/Km [19]: 45.8 µL/min/mg
